The values that follow come from US20060222638A1, “Cholesterol biosynthesis pathway modulators and uses thereof” (priority 2003, published 2006).

The target in one assay is T1, HMG-CoA reductase (Homo sapiens, UniProt P04035).
T1 construct: The cell proteins were used as enzyme source; endogenous in cells; host or cells: HepG2
T1 sequence (P04035 1-888): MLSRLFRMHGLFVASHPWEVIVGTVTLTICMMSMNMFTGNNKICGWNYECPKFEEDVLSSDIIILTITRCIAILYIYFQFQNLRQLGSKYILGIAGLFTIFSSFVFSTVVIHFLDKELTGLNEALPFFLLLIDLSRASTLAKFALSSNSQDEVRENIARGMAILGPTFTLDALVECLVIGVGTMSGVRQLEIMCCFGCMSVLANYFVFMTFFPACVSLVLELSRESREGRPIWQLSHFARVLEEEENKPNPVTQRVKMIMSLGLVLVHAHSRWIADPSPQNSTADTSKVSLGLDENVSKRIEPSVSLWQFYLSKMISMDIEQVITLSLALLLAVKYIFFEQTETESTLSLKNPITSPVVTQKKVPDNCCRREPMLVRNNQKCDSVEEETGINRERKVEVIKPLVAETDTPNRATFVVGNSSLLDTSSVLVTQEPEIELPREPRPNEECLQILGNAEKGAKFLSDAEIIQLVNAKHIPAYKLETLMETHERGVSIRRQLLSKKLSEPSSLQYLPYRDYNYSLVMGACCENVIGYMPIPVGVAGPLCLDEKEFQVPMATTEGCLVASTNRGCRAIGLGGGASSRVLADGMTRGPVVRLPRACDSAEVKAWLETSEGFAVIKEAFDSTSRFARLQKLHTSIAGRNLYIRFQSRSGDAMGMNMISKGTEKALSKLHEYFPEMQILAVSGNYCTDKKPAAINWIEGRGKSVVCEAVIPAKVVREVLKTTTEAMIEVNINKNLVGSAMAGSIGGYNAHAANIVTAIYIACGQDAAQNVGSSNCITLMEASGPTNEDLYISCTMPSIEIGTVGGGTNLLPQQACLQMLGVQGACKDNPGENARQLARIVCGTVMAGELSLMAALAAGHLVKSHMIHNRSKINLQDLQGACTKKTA
The assay is described as follows: HMGCoA reductase activity assay, HepG2 cells treated with inhibitors, cell proteins used as enzyme source. Format: cell-based. The method, then:
The cell stocks of Human Hepatoma cell line-HepG2 were cultured in T-25 flask in Eagle's minimum essential medium (MEM), supplemented with 10% fetal bovine serum, and incubated in a humidified incubator (5% CO2) at 37° C.
After 4 hours incubation with the inhibitors, the media was discarded and cells were washed with 0.90%saline. The cells were scraped and collected into a 50 ml tube. The cells were centrifuged at 2400 rpm for 5 min at 4 C, and the resulting cell pellet was washed twice with 10 ml saline. The final cell pellet was resuspended in 30 μl lysis buffer and briefly sonicated. The suspension was centrifuged at 14,000 rpm for 15 min and the supernatant containing the enzyme, HMGCoA reductase, was used for the assay.
In biosynthesis of cholesterol, HMG-CoA reductase is the key enzyme to convert HMG-CoA to its product mevalonate. In the presence of HCl, the mevalonate is converted into mevalonolactone. […] It will retain HMG-CoA, which is negatively charge in the column but not mevalonolactone, which will be eluted out by ammonium formate.
The 50 μl assay buffer (100 mM potassium dihydrogen phosphate, 4 mM dithiothreitol, 20 mM glucose-6-phosphate, 20 unit glucose-6-phosphate dehydrogenase, 2.5 mM NADP^+, 30 μM [14C] HMG-CoA (0.01 μCi) and microsomal protein) was incubated at 37° C. for 1 hour. Reaction was terminated by addition of 25 μl of 2M HCl. After 30 min lactonization of mevalonate to mevalonolactone, 500 μl of 20 mM ammonium formate was added to each sample, spun for 5 min at 14,000 rpm.
Supernatant was applied to the column that is pre-packed with QAE-Sephadex (4 cm), equilibrated with ammonium formate. The first 5 ml fractions was eluted with 20 mM ammonium formate, followed by 5 ml of 0.05M HCl and 10 ml of 0.1M HCl. Radioactivity of the first 5 ml (1 ml fraction) was determined using Beckman LS6500 scintillation counter.

In assay [1] the target is T2, HMG-CoA reductase from human hepatoma HepG2 cells (human) (UniProt P04035).
T2 sequence: T1 sequence (P04035 1-888)
The experiment in a line: cell-based or functional assay.

In a further assay the target is T3, HMGCoA reductase (Rattus norvegicus, UniProt P51639).
T3 construct: enzymes purified from the rat liver microsomes; from tissue; host or cells: rat hepatocytes / rat liver microsomes
T3 sequence (P51639 1-887): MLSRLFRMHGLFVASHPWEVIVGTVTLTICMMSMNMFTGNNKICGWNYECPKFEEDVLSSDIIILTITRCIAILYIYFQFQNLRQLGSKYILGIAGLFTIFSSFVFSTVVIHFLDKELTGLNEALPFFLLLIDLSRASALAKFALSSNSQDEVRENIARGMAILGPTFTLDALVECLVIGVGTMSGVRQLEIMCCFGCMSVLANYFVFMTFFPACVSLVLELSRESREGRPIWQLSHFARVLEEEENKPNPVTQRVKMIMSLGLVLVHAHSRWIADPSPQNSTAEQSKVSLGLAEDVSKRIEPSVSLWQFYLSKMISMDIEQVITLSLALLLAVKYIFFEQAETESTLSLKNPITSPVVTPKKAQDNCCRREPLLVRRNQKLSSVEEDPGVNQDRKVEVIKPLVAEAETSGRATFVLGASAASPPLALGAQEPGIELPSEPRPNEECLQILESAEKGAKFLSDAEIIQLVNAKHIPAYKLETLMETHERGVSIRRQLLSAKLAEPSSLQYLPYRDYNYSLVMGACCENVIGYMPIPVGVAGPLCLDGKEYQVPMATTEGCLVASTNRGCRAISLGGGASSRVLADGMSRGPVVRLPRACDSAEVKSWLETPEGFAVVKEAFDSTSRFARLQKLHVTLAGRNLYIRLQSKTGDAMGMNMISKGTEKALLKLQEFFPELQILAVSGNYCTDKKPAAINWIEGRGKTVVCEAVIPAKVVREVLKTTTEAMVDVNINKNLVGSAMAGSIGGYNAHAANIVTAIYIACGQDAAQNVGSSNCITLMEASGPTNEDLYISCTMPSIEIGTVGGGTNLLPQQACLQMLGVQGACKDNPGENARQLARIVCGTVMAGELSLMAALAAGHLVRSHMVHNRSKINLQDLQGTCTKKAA
The assay is described as follows: HMGCoA reductase assay using the enzyme isolated from rat hepatocytes, inhibitors added to the enzyme assay. The settings on record: enzyme from rat hepatocytes / rat liver microsomes. Format: biochemical. (In general: Microsomes from liver hold many membrane-bound enzymes, among them those of drug oxidation.)

Another assay has as its system HepG2 cell. The experiment in a line: Microarray analysis (global gene expression, HG_U133A chips) of treated HepG2 cells. Format: cell-based, human.
The test system of assay [2] is HepG2 cell protein profile. The experiment in a line: Protein profiling by SELDI-TOF (H4 and NP20 chips) of treated HepG2 cells. Type of assay: cell-based, human. Conditions: Table 3A, hydrophobic chip H4. The source says:
As for the protein profiling data, the profiles as shown in Table 3 were obtained by surface-enhanced laser […] ionization-time of flight mass spectro-photometry (SELDI-TOF) on treated and control samples using the H4 (hydrophobic) and the NP20 (hydrophilic) chips.

[3] abbreviates: HepG2 cells treated with synthetic peptides or statins at 10 μM, vs untreated cells.
Where [4] appears, read: HepG2, read-out: % of inhibition on HMG-CoA reductase activity, DMSO medium.

“Also recorded” adds a separate entry of the source. Where two headings read alike, the source gives them in different places.

The term inhibition denotes how much of the control response was suppressed.

For the molecule “KLHLASGGSCQQPAPFVKL (Buthus martensii Karsch) [Peptide 2]”, in the assay with HMG-CoA reductase (setting [3]), the “% of inhibition on HMG-CoA reductase activity, Aqueous medium” value was found to be 30% and the “% of inhibition on HMG-CoA reductase activity, DMSO medium” value came out at 7%. On to `CC(C)n1c(/C=C/C(O)CC(O)CC(=O)O)c(-c2ccc(F)cc2)c2ccccc21` (centres unmarked) [Fluvastatin, reference compound], for which the inhibition at 10 µM on HMG-CoA reductase (HepG2 cells treated with synthetic peptides or statins at 10 μM, vs untreated cells, read-out: % of inhibition on HMG-CoA reductase activity, DMSO medium) was determined as 74%. With `CC(C)c1c(C(=O)Nc2ccccc2)c(-c2ccccc2)c(-c2ccc(F)cc2)n1CC[C@@H](O)C[C@@H](O)CC(=O)O` [Atorvastatin, reference compound], the inhibition at 10 µM at HMG-CoA reductase (setting [4]) was 70%.

For “LSPWNEGDTYYGCQR (Buthus martensii Karsch) [Peptide 7]”, the “% of inhibition on HMG-CoA reductase activity, Aqueous medium” value in the assay with HMG-CoA reductase (setting [3]) amounted to 2%.

Regarding “SPWNEGD (Buthus martensii Karsch) [Peptide 8]”, in the assay with HMG-CoA reductase (setting [3]), the “% of inhibition on HMG-CoA reductase activity, Aqueous medium” value is reported as 1%. Still for that read-out and setting: then “GDTYYG (Buthus martensii Karsch) [Peptide 9]”, with 3%. Regarding “QPAPFVKLCTCQGI (Buthus martensii Karsch) [Peptide 1]”, in the assay with HMG-CoA reductase (setting [3]), the “% of inhibition on HMG-CoA reductase activity, Aqueous medium” value stood at 20% and the “% of inhibition on HMG-CoA reductase activity, DMSO medium” value is 20%. As to `CCC(C)(C)C(=O)O[C@H]1C[C@@H](C)C=C2C=C[C@H](C)[C@H](CC[C@@H]3C[C@@H](O)CC(=O)O3)[C@H]21` [Simvastatin, reference compound], the inhibition at 10 µM at HMG-CoA reductase (HepG2, read-out: % of inhibition on HMG-CoA reductase activity, Aqueous medium) was 35%; at HMG-CoA reductase (setting [4]) it was 65%. For the molecule “DSLSPWNEGDTYYG (Buthus martensii Karsch) [Peptide 6]”, the “% of inhibition on HMG-CoA reductase activity, Aqueous medium” value with HMG-CoA reductase (setting [3]) amounted to 4%. Consider “PAPFVKLCTCQGIDYDNSFFFG (Buthus martensii Karsch) [Peptide 3]”, for which, in the assay with HMG-CoA reductase (setting [3]), the “% of inhibition on HMG-CoA reductase activity, Aqueous medium” value was determined as 10% and the “% of inhibition on HMG-CoA reductase activity, DMSO medium” value was found to be 15%. For “GCQRQTDEFCNKICKLHLASG (Buthus martensii Karsch) [Peptide 5]”, in the assay with HMG-CoA reductase (setting [3]), the “% of inhibition on HMG-CoA reductase activity, Aqueous medium” value turned out to be 2%. Still for that read-out and setting: the value for “QGIDYDNSFFFGALEKQCPK (Buthus martensii Karsch) [Peptide 4]” was 7%. On to `CC[C@H](C)C(=O)O[C@H]1CCC=C2C=C[C@H](C)[C@H](CC[C@@H]3C[C@@H](O)CC(=O)O3)[C@H]21` [Mevastatin, reference compound], for which, on HMG-CoA reductase (10 µM), the “% of inhibition on HMG-CoA reductase activity, Aqueous medium” value came out at 35% and the “% of inhibition on HMG-CoA reductase activity, DMSO medium” value turned out to be 60%.

B1: JCH2 native protein purified from Buthus martensii Karsch venom (protein)
chain: DSLSPWNEGDTYYGCQRQTDEFCNKICKLHLASGGSCQQPAPFVKLCTCQGIDYDNSFFFGALEKQCPKLRE
Regarding B1, the % of inhibition on HMG-CoA reductase activity, aqueous medium, JCH2 at 0.6 µM (10 µg) in assay [1] amounted to 30%. Also, in the assay with HMG-CoA reductase (HepG2 cell HMGCoA reductase, JCH2 0.6 μM vs statins 10 μM), the “HMGCoA reductase inhibitory activity compared with statins (in words)” value is reported as “lowering the HMGCoA reductase activity at much lower concentrations than the known inhibitors; also recorded: higher inhibitory activity”. For the same molecule, the “% of inhibition on HMG-CoA reductase activity, Aqueous medium” value in the assay with HMG-CoA reductase (HepG2 cells treated with native proteins at 10 μg each (JCH2 0.6 μM), vs untreated cells) is 30%. The “HMGCoA reductase inhibitory activity (in words)” value in the assay with HMGCoA reductase is on record as “higher inhibitory activity”. In addition, the “HMGCoA reductase mRNA (in words)” value in the assay with HepG2 cell (microarray) is “reducing the reductase mRNA”. Besides, the “mevalonate, the precursor for cholesterol biosynthesis (in words)” value with HepG2 cell (microarray analysis) is “lowering the mevalonate”. Also, in assay [2], the “ApoC-II/III (8.8 kDa)” value is on record as “↑ ↑” and the “StAR related lipid transfer protein (23.0 kDa)” value is “↑ ↑”.
